Experimental data reported in US20020009726A1 (LA JOLLA CANCER RESEARCH FOUNDATION, published 2002).

Tests used:
LexA fusion of Lamin-C = biological target: T1, LexA fusion of Lamin-C (UniProt P0A7C2 1-202; P02545 66-230); assay: yeast two-hybrid, beta-galactosidase (lacZ reporter)
T1 sequence (looked up): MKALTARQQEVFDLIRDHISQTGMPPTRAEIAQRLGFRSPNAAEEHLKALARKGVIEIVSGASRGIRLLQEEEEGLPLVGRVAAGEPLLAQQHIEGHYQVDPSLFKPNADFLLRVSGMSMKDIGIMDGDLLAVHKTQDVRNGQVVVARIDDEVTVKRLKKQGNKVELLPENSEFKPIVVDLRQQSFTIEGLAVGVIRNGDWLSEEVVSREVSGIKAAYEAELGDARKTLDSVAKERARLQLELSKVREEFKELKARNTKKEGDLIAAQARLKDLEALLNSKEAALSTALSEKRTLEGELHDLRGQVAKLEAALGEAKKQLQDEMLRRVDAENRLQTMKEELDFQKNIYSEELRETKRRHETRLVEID
Description: (§1) The 166 clones were cured of LexA/CD40-encoding plasmids by growing the cells in tryptophan-containing medium. […] The mated cells were selected for growth in medium lacking tryptophan and leucine to obtain cells that contained both a pACT-B cell clone and a LexA-fusion protein. Colonies were transferred to histidine-deficient plates or histidine-containing media with X-Gal. Colonies expressing β-gal activity were identified using a plate assay and a filter assay. The plate assay was performed on the X-Gal containing plates -12 hr after plating according to previous methods (see Chien et al., Proc. Natl. Acad. Sci., USA 88:9578-9582 (1991), which is incorporated herein by reference). The β-gal filter assay was performed after 1 hr culture as described previously (Sato et al., supra, 1994; Breeden and Nasmyth, Cold Spring Harbor Symp. Quant. biol. 50:643-650 (1985), which is incorporated herein by reference).

[1] = biological target: LexA fusion of Ha-Ras (V12) (UniProt P0A7C2 1-202; P01112 1-189, limits assumed); assay: yeast two-hybrid, growth on histidine-deficient medium (HIS3 reporter)
Description: as §1

[2] = biological target: T2, LexA fusion of Bcl-2 (positions 83-218) (UniProt P0A7C2 1-202; P10415 83-218); assay: as above
T2 construct: also called Bcl-2 (83-218)
Description: as §1

Measured: binding result

B1: CAP-1 (pACT2229/GAL4 fusion) (other, not shown: small tags and cut ends)
chain: HDQMLSVHDIRLADMDLRFQVLETASYNGVLIWKIRDYKRRKQEAVMGKTLSLYSQPFYTGYFGYKMCARVYLNGDGMGKGTHLSLFFVIMRGEYDALLPWPFKQKVTLMLMDQGSSRRHLGDAFKPDPNSSSFKKPTGEMNIASGCPVFVAQTVLENGTYIKDDTIFIKVIVDTSDLPDP
notes: Yeast two-hybrid prey; also called pACT121; CD40 associated protein-1
no binding: all assays above
